Assay results from patent publication US20040053368A1 (published 2004).

Target: T1, bovine serum albumin (BSA, Sigma) (bovine, UniProt P02769 25-607)
T1 construct: Control protein coated on the ELISA plate
Experiment: ELISA, serum albumin coated at 1 mg/ml, detected with anti-human FNCBD monoclonal antibody
Experimental: By the enzyme-linked immunosorbent assay (ELISA), binding ability of the FNCBD-bFGF and the FNCBD-EGF to bovine native collagen (I-AC, Koken), bovine atelocollagen (I-PC, Koken), and bovine serum albumin (BSA, Sigma) was evaluated.
First, 1 mg/ml solutions of native collagen, atelocollagen, and serum albumin were respectively dispensed in the wells of a flat-bottom 96-well ELISA plate at 200 μl/well, and the plate was allowed to stand overnight at 4° C.
The wells were washed three times with PBS containing 0.05% Tween 20, and 100 μl of anti-human FNCBD monoclonal antibody (Takara Shuzo) diluted 1:1000 was dispensed in the wells and allowed to stand at room temperature for 1 hour. The wells were washed three times with 0.05% Tween 20/PBS, and 100 μl of peroxidase-labelled anti-mouse immunoglobulin polyclonal antibody (Dako Japan) diluted 1:1000 was dispensed in the wells and allowed to stand at room temperature for 1 hour. After washing the wells 6 times with 0.05% Tween 20/PBS, 0.1M citrate buffer, pH 4.7 containing 1 mg/ml o-phenylenediamine and 0.03% hydrogen peroxide was dispensed in the wells and allowed to stand for 10 minutes. The reaction was then terminated by addition of 50 μl of 4N sulfuric acid and absorption at 492-690 nm was measured.

T1 sequence (P02769 25-607 limits assumed): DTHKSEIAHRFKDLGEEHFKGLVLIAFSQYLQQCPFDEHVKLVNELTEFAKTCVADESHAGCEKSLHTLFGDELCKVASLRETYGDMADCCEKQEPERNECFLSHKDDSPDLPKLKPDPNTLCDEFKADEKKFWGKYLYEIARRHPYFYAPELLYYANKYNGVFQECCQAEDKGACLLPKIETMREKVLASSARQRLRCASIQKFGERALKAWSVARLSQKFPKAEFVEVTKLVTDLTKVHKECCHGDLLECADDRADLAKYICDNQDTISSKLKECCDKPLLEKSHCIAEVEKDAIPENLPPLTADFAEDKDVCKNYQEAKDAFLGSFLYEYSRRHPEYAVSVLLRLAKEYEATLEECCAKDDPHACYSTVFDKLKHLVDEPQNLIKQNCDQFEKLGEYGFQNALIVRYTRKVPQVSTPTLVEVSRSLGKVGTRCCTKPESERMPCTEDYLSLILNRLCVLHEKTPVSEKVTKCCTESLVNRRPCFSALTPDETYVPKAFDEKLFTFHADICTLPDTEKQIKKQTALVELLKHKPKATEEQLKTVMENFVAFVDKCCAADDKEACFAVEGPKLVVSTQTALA

binding result: no binding
B1: human FNCBD/human EGF hybrid polypeptide (FNCBD-EGF) (other)
chain: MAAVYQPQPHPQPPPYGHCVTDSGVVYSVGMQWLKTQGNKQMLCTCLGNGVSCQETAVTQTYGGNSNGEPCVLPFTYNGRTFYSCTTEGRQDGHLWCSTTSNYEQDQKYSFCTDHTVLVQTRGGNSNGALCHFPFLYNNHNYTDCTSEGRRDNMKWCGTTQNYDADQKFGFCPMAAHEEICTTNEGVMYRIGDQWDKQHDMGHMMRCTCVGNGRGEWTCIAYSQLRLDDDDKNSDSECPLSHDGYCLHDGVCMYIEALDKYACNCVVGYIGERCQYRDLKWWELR
notes: also called FN484-EGF; FNCBD/EGF hybrid polypeptide
